Molecular target: fibrinogen
Assay: cell-based or functional assay

Final Abs (405 nm) of thrombin-induced clot at [Decorin] 0.2 mM: 0.16 Abs 405 nm | Final Abs (405 nm) of thrombin-induced clot at [Decorin] 0.4 mM: 0.145 Abs 405 nm | Final Abs (405 nm) of thrombin-induced clot at [Decorin] 1.0 mM: 0.12 Abs 405 nm | Final Abs (405 nm) of thrombin-induced clot at [Decorin] 2.0 mM: 0.113 Abs 405 nm | Rate (mAbs/min) of thrombin-induced clotting at [Decorin] 0.2 mM: 61.8 mAbs/min | Rate (mAbs/min) of thrombin-induced clotting at [Decorin] 0.4 mM: 55 mAbs/min | Rate (mAbs/min) of thrombin-induced clotting at [Decorin] 1.0 mM: 38.8 mAbs/min | Rate (mAbs/min) of thrombin-induced clotting at [Decorin] 2.0 mM: 34.5 mAbs/min
Substance: decorin core protein
